In US20100184663A1:
Ends that are not written are not given here.

Legend:
D-IZN17 (HIV-1) [1] = target: D-IZN17 (HIV-1) (UniProt P04578); assay: clonal phage binding assay, solution phase, D-IZN17 pulled down on streptavidin beads
D-IZN17 (HIV-1) [2] = target: D-IZN17 (HIV-1) (UniProt P04578); assay: clonal phage binding assay in the presence of 25 µM L-2K-PIE2 competitor

B1: PIE2-φ (peptide)
peptide: GACDYPEWRWLCAA
modifications: not fully specified (C-terminus); cysteine pairing not given here; also: displayed on M13 g3 protein
fold binding relative to PIE1-φ (D-IZN17 (HIV-1) [1]): 5 fold | fold binding relative to PIE9-φ (D-IZN17 (HIV-1) [2]): 3 fold

GACDYPEWRWLCAAA [PIE2-AAA-φ]
fold binding relative to wt PIE2-φ (D-IZN17 (HIV-1) [2]): 70 fold

B2: PIE7-φ (peptide)
peptide: GACDYPEWQWLCAA
modifications: not fully specified (C-terminus); cysteine pairing not given here; also: displayed on M13 g3 protein
fold binding relative to PIE2-φ (D-IZN17 (HIV-1) [2]): 10 fold

B3: PIE8-φ (peptide)
peptide: GACDYKEWQWLCAA
modifications: not fully specified (C-terminus); cysteine pairing not given here; also: displayed on M13 g3 protein
fold binding relative to PIE2-φ (D-IZN17 (HIV-1) [2]): 2 fold
